Drawing on patent US20250011363A1, “OPTIMIZED SHORTENED PEPTIDE THAT BINDS TO ACETYLCHOLINE RECEPTOR, AND USE THEREOF” (SKINMED CO., LTD., priority 2021, published 2025), this text covers Binding affinity (RU) for 71 molecules.

The target of the test is acetylcholine receptor. Nature of the test: SPR, AchR immobilized on CM5 chip, peptide 10 uM. A general note: SPR reads the build-up and loss of mass on a sensor chip optically.

B1: 6mer-1-357 (peptide)
peptide: KRRQTR
Turning to B1, the Binding affinity (RU) was 148 RU.

B2: 6mer-1-742 (peptide)
peptide: RRFHWR
Turning to B2, the Binding affinity (RU) is 14 RU.

B3: 6mer-1-358 (peptide)
peptide: KRRYTR
On to B3, for which the Binding affinity (RU) came to 124 RU.

B4: 6mer-1-749 (peptide)
peptide: RKPHWR
As to B4, the Binding affinity (RU) worked out at 33 RU.

B5: 6mer-1-398 (peptide)
peptide: KKQYYR
B5 registered a Binding affinity (RU) of 137 RU.

B6: 6mer-1-399 (peptide)
peptide: KRWILR
With B6, the Binding affinity (RU) was 125 RU.

B7: 6mer-1-389 (peptide)
peptide: RKLFCK
With B7, the Binding affinity (RU) stood at 125 RU.

B8: 6mer-1-400 (peptide)
peptide: KRWQTK
For B8, the Binding affinity (RU) was 123 RU.

B9: 6mer-1-736 (peptide)
peptide: KKATDK
In turn, B9 showed a Binding affinity (RU) of 15 RU.

B10: 6mer-1-371 (peptide)
peptide: KRSLTR
Consider B10, for which the Binding affinity (RU) was 153 RU.

B11: 6mer-1-365 (peptide)
peptide: KKRICK
Take B11: the Binding affinity (RU) worked out at 142 RU.

B12: 6mer-1-387 (peptide)
peptide: KKGRLR
B12: the Binding affinity (RU) came out at 148 RU.

B13: 6mer-1-740 (peptide)
peptide: RKDNKR
For the molecule B13, the Binding affinity (RU) was determined as 26 RU.

B14: 6mer-1-383 (peptide)
peptide: RKRRTK
B14: the Binding affinity (RU) was 148 RU.

B15: 6mer-1-750 (peptide)
peptide: KRENIK
On to B15, for which the Binding affinity (RU) worked out at 33 RU.

B16: 6mer-1-735 (peptide)
peptide: RKDKER
On to B16, for which the Binding affinity (RU) was 19 RU.

B17: 6mer-1-748 (peptide)
peptide: RKHNGR
In turn, B17 came in with a Binding affinity (RU) of 24 RU.

B18: 6mer-1-375 (peptide)
peptide: RRVFYR
In the case of B18, the Binding affinity (RU) worked out at 154 RU.

B19: 6mer-1-382 (peptide)
peptide: KRQYTR
Regarding B19, the Binding affinity (RU) is 139 RU.

B20: 6mer-1-360 (peptide)
peptide: KRVFLK
As to B20, the Binding affinity (RU) came out at 148 RU.

B21: 6mer-1-361 (peptide)
peptide: RKSVQR
The molecule B21 displayed a Binding affinity (RU) of 127 RU.

B22: 6mer-1-359 (peptide)
peptide: KRQFLR
B22 registered a Binding affinity (RU) of 131 RU.

B23: 6mer-1-373 (peptide)
peptide: KRGVLK
Take B23: the Binding affinity (RU) is 149 RU.

B24: 6mer-1-739 (peptide)
peptide: RKCCEK
In the case of B24, the Binding affinity (RU) worked out at 32 RU.

B25: 6mer-1-370 (peptide)
peptide: RKQLYK
On to B25, for which the Binding affinity (RU) is 142 RU.

B26: 6mer-1-745 (peptide)
peptide: KKTMEK
For the molecule B26, the Binding affinity (RU) came to 11 RU.

B27: 6mer-1-395 (peptide)
peptide: KKRQTK
In turn, B27 came in with a Binding affinity (RU) of 125 RU.

B28: 6mer-1-364 (peptide)
peptide: RKRQSK
B28 registered a Binding affinity (RU) of 124 RU.

B29: 6mer-1-377 (peptide)
peptide: KRWITR
Take B29: the Binding affinity (RU) came to 148 RU.

B30: 6mer-1-369 (peptide)
peptide: KKWYRK
Molecule B30 had a Binding affinity (RU) of 144 RU.

B31: 6mer-1-354 (peptide)
peptide: KKVFLK
With B31, the Binding affinity (RU) is 153 RU.

B32: 6mer-1-746 (peptide)
peptide: RKMSVK
Consider B32, for which the Binding affinity (RU) came out at 24 RU.

B33: 6mer-1-741 (peptide)
peptide: RKEAGR
Consider B33, for which the Binding affinity (RU) was determined as 24 RU.

B34: 6mer-1-384 (peptide)
peptide: RKVICK
B34 returned a Binding affinity (RU) of 148 RU.

B35: 6mer-1-394 (peptide)
peptide: KKVRRR
Take B35: the Binding affinity (RU) worked out at 149 RU.

B36: 6mer-1-363 (peptide)
peptide: KRQIRR
The molecule B36 displayed a Binding affinity (RU) of 121 RU.

B37: 6mer-1-751 (peptide)
peptide: RRTNFK
With B37, the Binding affinity (RU) was 27 RU.

B38: 6mer-1-752 (peptide)
peptide: KRPTEK
Molecule B38 gave a Binding affinity (RU) of 16 RU.

B39: 6mer-1-356 (peptide)
peptide: KRGYSK
In the case of B39, the Binding affinity (RU) amounted to 153 RU.

B40: 6mer-1-362 (peptide)
peptide: KRVVYK
Molecule B40 yielded a Binding affinity (RU) of 133 RU.

B41: 6mer-1-747 (peptide)
peptide: KKTMDR
As to B41, the Binding affinity (RU) was 24 RU.

B42: 6mer-1-380 (peptide)
peptide: KRLQLR
Molecule B42 came in with a Binding affinity (RU) of 121 RU.

B43: 6mer-1-353 (peptide)
peptide: KRLYLK
Molecule B43 showed a Binding affinity (RU) of 126 RU.

B44: 6mer-1-396 (peptide)
peptide: KRQIQK
The molecule B44 returned a Binding affinity (RU) of 148 RU.

B45: 6mer-1-379 (peptide)
peptide: KRRISK
For the molecule B45, the Binding affinity (RU) was found to be 153 RU.

B46: 6mer-1-374 (peptide)
peptide: KKQFQK
The molecule B46 yielded a Binding affinity (RU) of 148 RU.

B47: 6mer-1-401 (peptide)
peptide: RRLYCR
B47: the Binding affinity (RU) turned out to be 127 RU.

B48: 6mer-1-388 (peptide)
peptide: RRLLQR
B48 showed a Binding affinity (RU) of 142 RU.

B49: 6mer-1-743 (peptide)
peptide: KKTMVR
Take B49: the Binding affinity (RU) was 14 RU.

B50: 6mer-1-385 (peptide)
peptide: KRQVLR
For the molecule B50, the Binding affinity (RU) stood at 127 RU.

B51: 6mer-1-366 (peptide)
peptide: KRWFCR
In turn, B51 gave a Binding affinity (RU) of 133 RU.

B52: 6mer-1-390 (peptide)
peptide: RKLQQR
For the molecule B52, the Binding affinity (RU) came out at 121 RU.

B53: 6mer-1-355 (peptide)
peptide: RKVFYR
B53: the Binding affinity (RU) is 148 RU.

B54: 6mer-1-733 (peptide)
peptide: KKKMFK
On to B54, for which the Binding affinity (RU) turned out to be 21 RU.

B55: 6mer-1-393 (peptide)
peptide: KRLYYK
Take B55: the Binding affinity (RU) worked out at 148 RU.

B56: 6mer-1-376 (peptide)
peptide: RRQLRK
With B56, the Binding affinity (RU) is 121 RU.

B57: 6mer-1-386 (peptide)
peptide: RRSYQK
In the case of B57, the Binding affinity (RU) is 127 RU.

B58: 6mer-1-378 (peptide)
peptide: KRSLQK
Consider B58, for which the Binding affinity (RU) is 153 RU.

B59: 6mer-1-744 (peptide)
peptide: RKHEIK
Regarding B59, the Binding affinity (RU) came to 31 RU.

B60: 6mer-1-367 (peptide)
peptide: RKGFSK
Take B60: the Binding affinity (RU) was found to be 154 RU.

B61: 6mer-1-397 (peptide)
peptide: KRLILR
The molecule B61 had a Binding affinity (RU) of 125 RU.

B62: 6mer-1-737 (peptide)
peptide: RRKNAR
With B62, the Binding affinity (RU) is 27 RU.

B63: 6mer-1-381 (peptide)
peptide: RKGFYR
Regarding B63, the Binding affinity (RU) was found to be 124 RU.

B64: 6mer-1-738 (peptide)
peptide: RKYHHR
Molecule B64 displayed a Binding affinity (RU) of 25 RU.

B65: 6mer-1-352 (peptide)
peptide: RKVFRK
Molecule B65 yielded a Binding affinity (RU) of 142 RU.

B66: 6mer-1-734 (peptide)
peptide: RRTHER
As to B66, the Binding affinity (RU) was 21 RU.

B67: 6mer-1-753 (peptide)
peptide: KKDTHK
Consider B67, for which the Binding affinity (RU) amounted to 12 RU.

B68: 6mer-1-368 (peptide)
peptide: RRRFSK
Consider B68, for which the Binding affinity (RU) is 145 RU.

B69: 6mer-1-392 (peptide)
peptide: RRVQTR
B69 returned a Binding affinity (RU) of 135 RU.

B70: 6mer-1-372 (peptide)
peptide: RKLRSK
With B70, the Binding affinity (RU) worked out at 145 RU.

B71: 6mer-1-391 (peptide)
peptide: RRQRCK
The molecule B71 registered a Binding affinity (RU) of 131 RU.
